From publication PMC8509576, “Loops around the Heme Pocket Have a Critical Role in the Function and Stability of BsDyP from Bacillus subtilis” (International Journal of Molecular Sciences, 2021)

How the values were obtained:
[1] = substrate: CCn1c(=NN=c2sc3cc(S(=O)(=O)O)ccc3n2CC)sc2cc(S(=O)(=O)O)ccc21; test: steady-state kinetics, ABTS oxidation; format: biochemical, Bacillus subtilis; details: one kcat column shared with H2O2
From the text: steady-state kinetics, ABTS oxidation on BsDyP

[2] = substrate: COc1cccc(OC)c1O; test: steady-state kinetics, oxidation followed by absorbance; format: biochemical, Bacillus subtilis
From the text: steady-state kinetics, oxidation followed by absorbance on BsDyP

[3] = 0.2 mM H2O2, pH 4.2, 25 °C, apparent
[4] = 0.2 mM H2O2, sodium phosphate buffer pH 3.8, 25 °C, apparent, rates per holoprotein
[5] = variant 1F9, 0.6 mM H2O2, pH 4.2, 25 °C
[6] = variant 1F9, 0.6 mM H2O2, sodium phosphate buffer pH 3.8, 25 °C
[7] = variant 5G5, 0.6 mM H2O2, pH 4.2, 25 °C
[8] = variant 5G5, 0.6 mM H2O2, sodium phosphate buffer pH 3.8, 25 °C
[9] = variant 3G5, 0.6 mM H2O2, pH 4.2, 25 °C
[10] = variant 3G5, 0.6 mM H2O2, sodium phosphate buffer pH 3.8, 25 °C
[11] = variant 54D6, 0.6 mM H2O2, pH 4.2, 25 °C
[12] = variant 54D6, 0.6 mM H2O2, sodium phosphate buffer pH 3.8, 25 °C

B1: BsDyP (Bacillus subtilis subsp. subtilis str. 168; A45M) (protein)
chain: MKPSKKDEKEEEQIVPFYGKHQAGITTAHQTYVYFAALDVTAKDKSDIITLFRNWTSLTQMLTSGKKMSAEQRNQYLPPQDTGESADLSPSNLTVTFGFGPGFFEKDGKDRFGLKSKKPKHLAALPAMPNDNLDEKQGGGDICIQVCADDEQVAFHALRNLLNQAVGTCEVRFVNKGFLSGGKNGETPRNLFGFKDGTGNQSTKDDTLMNSIVWIQSGEPDWMTGGTYMAFRKIKMFLEVWDRSSLKDQEDTFGRRKSSGAPFGQKKETDPVKLNQIPSNSHVSLAKSTGKQILRRAFSYTEGLDPKTGYMDAGLLFISFQKNPDNQFIPMLKALSAKDALNEYTQTIGSALYACPGGCKKGEYIAQRLLES
notes: Tat signal peptide (residues 1-45) deleted, A45M new start codon, plasmid pVB4 (pET-21a), no tag told; expressed in E. coli Tuner(DE3); called wild-type BsDyP; precursor 416 residues
- Km [1, 3]: 0.42 ± 0.03 mM
- kcat [1, 3]: 14.2 ± 1.0 s⁻¹
- kcat/Km [1, 3]: 36000 ± 3000 M⁻¹ s⁻¹
- Km [2, 4]: 0.06 ± 0.01 mM
- kcat [2, 4]: 0.42 ± 0.03 s⁻¹
- kcat/Km [2, 4]: 7000 ± 1000 M⁻¹ s⁻¹

B2: BsDyP (Bacillus subtilis subsp. subtilis str. 168; A45M/S325P) (protein)
chain: MKPSKKDEKEEEQIVPFYGKHQAGITTAHQTYVYFAALDVTAKDKSDIITLFRNWTSLTQMLTSGKKMSAEQRNQYLPPQDTGESADLSPSNLTVTFGFGPGFFEKDGKDRFGLKSKKPKHLAALPAMPNDNLDEKQGGGDICIQVCADDEQVAFHALRNLLNQAVGTCEVRFVNKGFLSGGKNGETPRNLFGFKDGTGNQSTKDDTLMNSIVWIQSGEPDWMTGGTYMAFRKIKMFLEVWDRSSLKDQEDTFGRRKSSGAPFGQKKETDPVKLNQIPSNPHVSLAKSTGKQILRRAFSYTEGLDPKTGYMDAGLLFISFQKNPDNQFIPMLKALSAKDALNEYTQTIGSALYACPGGCKKGEYIAQRLLES
notes: as for B1
- Km [1, 5]: 0.89 ± 0.10 mM
- kcat [1, 5]: 50.4 ± 1.4 s⁻¹
- kcat/Km [1, 5]: 58000 ± 7000 M⁻¹ s⁻¹
- Km [2, 6]: 0.15 ± 0.01 mM
- kcat [2, 6]: 0.83 ± 0.04 s⁻¹
- kcat/Km [2, 6]: 5500 ± 400 M⁻¹ s⁻¹

B3: BsDyP (Bacillus subtilis subsp. subtilis str. 168; A330V/A45M/K317E/S325P) (protein)
chain: MKPSKKDEKEEEQIVPFYGKHQAGITTAHQTYVYFAALDVTAKDKSDIITLFRNWTSLTQMLTSGKKMSAEQRNQYLPPQDTGESADLSPSNLTVTFGFGPGFFEKDGKDRFGLKSKKPKHLAALPAMPNDNLDEKQGGGDICIQVCADDEQVAFHALRNLLNQAVGTCEVRFVNKGFLSGGKNGETPRNLFGFKDGTGNQSTKDDTLMNSIVWIQSGEPDWMTGGTYMAFRKIKMFLEVWDRSSLKDQEDTFGRRKSSGAPFGQKKETDPVELNQIPSNPHVSLVKSTGKQILRRAFSYTEGLDPKTGYMDAGLLFISFQKNPDNQFIPMLKALSAKDALNEYTQTIGSALYACPGGCKKGEYIAQRLLES
notes: as for B1
- Km [1, 7]: 1.29 ± 0.19 mM
- kcat [1, 7]: 56.1 ± 1.9 s⁻¹
- kcat/Km [1, 7]: 42000 ± 6000 M⁻¹ s⁻¹
- Km [2, 8]: 0.7 ± 0.1 mM
- kcat [2, 8]: 2.8 ± 0.1 s⁻¹
- kcat/Km [2, 8]: 3800 ± 200 M⁻¹ s⁻¹

B4: BsDyP (Bacillus subtilis subsp. subtilis str. 168; A330V/A45M/L166Q/T296S/V284A) (protein)
chain: MKPSKKDEKEEEQIVPFYGKHQAGITTAHQTYVYFAALDVTAKDKSDIITLFRNWTSLTQMLTSGKKMSAEQRNQYLPPQDTGESADLSPSNLTVTFGFGPGFFEKDGKDRFGLKSKKPKHQAALPAMPNDNLDEKQGGGDICIQVCADDEQVAFHALRNLLNQAVGTCEVRFVNKGFLSGGKNGETPRNLFGFKDGTGNQSTKDDTLMNSIVWIQSGEPDWMTGGTYMAFRKIKMFLEAWDRSSLKDQEDSFGRRKSSGAPFGQKKETDPVKLNQIPSNSHVSLVKSTGKQILRRAFSYTEGLDPKTGYMDAGLLFISFQKNPDNQFIPMLKALSAKDALNEYTQTIGSALYACPGGCKKGEYIAQRLLES
notes: as for B1
- Km [1, 9]: 1.37 ± 0.25 mM
- kcat [1, 9]: 28.1 ± 2.1 s⁻¹
- kcat/Km [1, 9]: 25000 ± 5000 M⁻¹ s⁻¹
- Km [2, 10]: 0.09 ± 0.01 mM
- kcat [2, 10]: 0.8 ± 0.1 s⁻¹
- kcat/Km [2, 10]: 9000 ± 1000 M⁻¹ s⁻¹

B5: BsDyP (Bacillus subtilis subsp. subtilis str. 168; A45M/K317E/S325P) (protein)
chain: MKPSKKDEKEEEQIVPFYGKHQAGITTAHQTYVYFAALDVTAKDKSDIITLFRNWTSLTQMLTSGKKMSAEQRNQYLPPQDTGESADLSPSNLTVTFGFGPGFFEKDGKDRFGLKSKKPKHLAALPAMPNDNLDEKQGGGDICIQVCADDEQVAFHALRNLLNQAVGTCEVRFVNKGFLSGGKNGETPRNLFGFKDGTGNQSTKDDTLMNSIVWIQSGEPDWMTGGTYMAFRKIKMFLEVWDRSSLKDQEDTFGRRKSSGAPFGQKKETDPVELNQIPSNPHVSLAKSTGKQILRRAFSYTEGLDPKTGYMDAGLLFISFQKNPDNQFIPMLKALSAKDALNEYTQTIGSALYACPGGCKKGEYIAQRLLES
notes: as for B1
- Km [1, 11]: 0.80 ± 0.14 mM
- kcat [1, 11]: 47.7 ± 2.9 s⁻¹
- kcat/Km [1, 11]: 60000 ± 11000 M⁻¹ s⁻¹
- Km [2, 12]: 0.60 ± 0.01 mM
- kcat [2, 12]: 1 ± 0.1 s⁻¹
- kcat/Km [2, 12]: 1600 ± 500 M⁻¹ s⁻¹
